This is an account of results in patent US9999664B2, “HIV-1 gp120 mini V3 loop and uses thereof” (The Scripps Research Institute, priority 2011, dated 2018).

Experiment [1] concerns the target gp120 JR-CSF (HIV-1 JR-CSF) (UniProt P20871). Put plainly: gp120 ELISA.
The target in experiment [2] is gp120 JR-FL (HIV-1 JR-FL). Briefly: gp120 ELISA.
For experiment [3], the target named is HIV-1 JR-CSF envelope (Env) on pseudovirus (HIV-1 JR-CSF) (UniProt P20871). Put plainly: cell-based or functional assay.
Experiment [4] concerns the target HIV-1 JR-FL envelope (Env) on pseudovirus (HIV-1 JR-FL). Briefly: cell-based or functional assay.
In experiment [5] the test system is PGT 127. Put plainly: Neoglycolipid microarray binding, PGT 127. Conditions: PGT 127 at 10 μg/ml pre-complexed with biotinylated anti-human-IgG; 5 fmol/spot. On the procedure:
(§1) The microarrays (designated N-glycan-related Array Set 1) consisted of NGLs prepared by reductive amination (70) or oxime ligation (71) (Table S5). These were robotically printed onto nitrocellulose-coated glass slides as described (72), each at two levels (2 and 5 fmol/spot) in duplicate. The binding assays (70) were performed at ambient temperature. The PGTs 127 and 128 were pre-complexed with biotinylated anti-human-IgG (Vector) at a 1:3 ratio, w/w, before applying onto the slides at a final concentration of 10 μg/ml. Biotinylated ConA (Vector) was tested at 0.5 μg/ml. Binding was detected with Alexa-Fluor 647 labelled streptavidin (Molecular Probes) at 1 μg/ml. Microarray data analysis was performed with dedicated software. Binding signals were oligosaccharide dose-related. Results at 5 fmol/spot with selected oligomannose NGLs (prepared by reductive amination) are in FIG. 9A, and the full data with the 50 NGLs are shown in Table S6. Included for comparison are the results with human 2G12 (Polymun Scientific) taken from an earlier experiment performed using a different version of microarrays (73). Antibody 2G12 was analyzed at 1:10000 dilution (without pre-complexation), and the binding was detected with biotinylated anti-human-IgG followed by Alexa-Fluor 647 labelled streptavidin.

Experiment [6] concerns PGT 128. Briefly: Neoglycolipid microarray binding, PGT 128. Conditions: PGT 128 at 10 μg/ml pre-complexed with biotinylated anti-human-IgG; 5 fmol/spot. How it is done:
as §1

Experiment [7] deals with T1, plant lectin ConA (Canavalia ensiformis, UniProt P02866).
T1 construct: purchased Vector
Put plainly: Neoglycolipid microarray binding, ConA. Particulars: biotinylated ConA at 0.5 μg/ml. On the procedure:
as §1

The subject of experiment [8] is 2G12. Particulars: 2G12 at 1:10000 dilution; earlier experiment, different version of the microarray; cited from earlier work.
In experiment [9] the target is HIV-1 BaL envelope (Env) on pseudovirus (HIV-1 BaL). Briefly: cell-based or functional assay.

With PGT 128 IgG variant HC A30Q (antibody), the fold change in gp120 binding (EC50 variant/EC50 WT) in experiment [1] came to 1.9 fold; in experiment [2] it was 1.5 fold. Besides, the Fold change in neutralization (IC50 variant/IC50 WT antibody) stood at 2.4 fold in [3] and 11.4 fold in experiment [4].
Turning to `CCCCCCCCCCCCCCCCOCC(COP(=O)(O)OCCNCC(NC(C)=O)C(O)C(OC1OC(CO)C(OC2OC(COC3OC(CO)C(O)C(O)C3O)C(O)C(O)C2O)C(O)C1NC(C)=O)C(O)CO)OCCCCCCCCCCCCCCCC` (stereo not drawn) [Man2aGN2-DH, Manα-6Manβ-4GlcNAcβ-4GlcNAc-DH], the “Fluorescence signal intensity 127” value in experiment [5] was “— (Signal less than 1)”. Moreover, the “Fluorescence signal intensity 128” value in experiment [6] is on record as “— (Signal less than 1)”. Also, in experiment [7], the “Fluorescence signal intensity ConA” value is 1,923. In addition, the “Fluorescence signal intensity 2G12” value in experiment [8] is “— (Signal less than 1)”.
Regarding `CCCCCCCCCCCCCCCCOCC(COP(=O)(O)OCCNCC(NC(C)=O)C(O)C(OC1OC(CO)C(OC2OC(COC3OC(COC4OC(CO)C(O)C(O)C4O)C(O)C(OC4OC(CO)C(O)C(O)C4O)C3O)C(O)C(O)C2O)C(O)C1NC(C)=O)C(O)CO)OCCCCCCCCCCCCCCCC` (stereo not drawn) [Man4bGN2-DH], the “Fluorescence signal intensity 127” value in experiment [5] is recorded as “— (Signal less than 1)”. In experiment [6], the “Fluorescence signal intensity 128” value was “— (Signal less than 1)”. In addition, in experiment [7], the “Fluorescence signal intensity ConA” value is recorded as 16,615. In addition, in experiment [8], the “Fluorescence signal intensity 2G12” value is “— (Signal less than 1)”.
Turning to PGT 128 IgG variant HC A70D (antibody), the fold change in gp120 binding (EC50 variant/EC50 WT) was found to be 0.5 fold in experiment [1] and 1 fold in experiment [2]. Also, the Fold change in neutralization (IC50 variant/IC50 WT antibody) in experiment [3] worked out at 1.9 fold.
With `CCCCCCCCCCCCCCCCOCC(COP(=O)(O)OCCNCC(NC(C)=O)C(O)C(OC1OC(CO)C(OC2OC(COC3OC(CO)C(O)C(O)C3O)C(O)C(OC3OC(CO)C(O)C(O)C3O)C2O)C(O)C1NC(C)=O)C(O)COC1OC(C)C(O)C(O)C1O)OCCCCCCCCCCCCCCCC` (stereo not drawn) [Man3FGN2-DH], in experiment [5], the “Fluorescence signal intensity 127” value was “— (Signal less than 1)”. Further, the “Fluorescence signal intensity 128” value in experiment [6] is “— (Signal less than 1)”. In [7], the “Fluorescence signal intensity ConA” value is reported as 20,011. In addition, the “Fluorescence signal intensity 2G12” value in [8] was 52.
In the case of `CCCCCCCCCCCCCCCCOCC(COP(=O)(O)OCCNCC(O)C(O)C(O)C(O)COC1OC(CO)C(O)C(O)C1O)OCCCCCCCCCCCCCCCC` (stereo not drawn) [Man2(α6)-DH, Manα-6Man-DH], the “Fluorescence signal intensity 127” value in experiment [5] was “— (Signal less than 1)”. Moreover, the “Fluorescence signal intensity 128” value in [6] is given as “— (Signal less than 1)”. Further, in [7], the “Fluorescence signal intensity ConA” value was 608. Moreover, the “Fluorescence signal intensity 2G12” value in [8] was 205.
For PGT 128 IgG variant HC S28A (antibody), the fold change in gp120 binding (EC50 variant/EC50 WT) in experiment [1] stood at 0.8 fold; in experiment [2], 0.6 fold. Also, the values for the Fold change in neutralization (IC50 variant/IC50 WT antibody) in experiment [3] and in experiment [4] were 1.2 fold and 0.9 fold, respectively.
As for `CCCCCCCCCCCCCCCCOCC(COP(=O)(O)OCCNCC(OC1OC(CO)C(O)C(O)C1O)C(O)C(O)C(O)CO)OCCCCCCCCCCCCCCCC` (stereo not drawn) [Man2(α2)-DH, Manα-2Man-DH], the “Fluorescence signal intensity 127” value in [5] is on record as “— (Signal less than 1)”. Besides, the “Fluorescence signal intensity 128” value in experiment [6] is on record as “— (Signal less than 1)”. Further, the “Fluorescence signal intensity ConA” value in [7] is “— (Signal less than 1)”. Moreover, the “Fluorescence signal intensity 2G12” value in experiment [8] is 73.
Regarding PGT 128 IgG variant HC C32A (antibody), the Fold change in neutralization (IC50 variant/IC50 WT antibody) in experiment [9] is above 4000 fold; in experiment [3], above 2000 fold; in experiment [4], above 3000 fold.
With PGT 128 IgG variant HC T73A (antibody), the figures for the fold change in gp120 binding (EC50 variant/EC50 WT) in experiment [1] and in [2] were 1.6 fold and 2.2 fold, respectively. Also, the figures for the Fold change in neutralization (IC50 variant/IC50 WT antibody) in experiment [3] and in experiment [4] were 1.6 fold and 77.6 fold, respectively.
In the case of `CCCCCCCCCCCCCCCCOCC(COP(=O)(O)OCCNCC(NC(C)=O)C(O)C(OC1OC(CO)C(O)C(O)C1O)C(O)CO)OCCCCCCCCCCCCCCCC` (stereo not drawn) [Man1GN1-DH, Manβ-4GlcNAc-DH], in experiment [5], the “Fluorescence signal intensity 127” value is “— (Signal less than 1)”. Further, the “Fluorescence signal intensity 128” value in experiment [6] is given as “— (Signal less than 1)”. Besides, the “Fluorescence signal intensity ConA” value in experiment [7] is given as “— (Signal less than 1)”. The “Fluorescence signal intensity 2G12” value in experiment [8] was 101.
On to PGT 128 IgG variant HC F79A (antibody), for which the fold change in gp120 binding (EC50 variant/EC50 WT) in [1] turned out to be 0.5 fold; in experiment [2] it was 0.6 fold. Moreover, in [3], the Fold change in neutralization (IC50 variant/IC50 WT antibody) came out at 0.9 fold.
In the case of PGT 128 IgG variant HC P74A (antibody), the fold change in gp120 binding (EC50 variant/EC50 WT) in experiment [1] was 0.9 fold; in experiment [2], 0.8 fold. The Fold change in neutralization (IC50 variant/IC50 WT antibody) in [3] amounted to 0.8 fold; in [4], 1.2 fold.
Turning to “PGT 128 IgG variant HC C32A C52bA (antibody)”, the Fold change in neutralization (IC50 variant/IC50 WT antibody) in experiment [9] was above 4000 fold; in experiment [3] it was above 2000 fold; in experiment [4] it was above 3000 fold.
Consider PGT 128 IgG variant LC D95aA (antibody), for which the Fold change in neutralization (IC50 variant/IC50 WT antibody) is above 4000 fold in experiment [9], 68.5 fold in experiment [3] and above 3000 fold in [4].
With “PGT 128 IgG variant HC T100cA (antibody)”, the fold change in gp120 binding (EC50 variant/EC50 WT) in experiment [1] came out at 1.2 fold; in [2], 0.9 fold. The Fold change in neutralization (IC50 variant/IC50 WT antibody) in experiment [3] was 1.5 fold; in experiment [4] it was 1.2 fold.
Turning to PGT 128 IgG variant HC K75A (antibody), the fold change in gp120 binding (EC50 variant/EC50 WT) came out at 2.1 fold in experiment [1] and 1.6 fold in experiment [2]. Moreover, the Fold change in neutralization (IC50 variant/IC50 WT antibody) in experiment [3] and in experiment [4] was 2.9 fold each time.
Turning to PGT 128 IgG variant HC K64A (antibody), the fold change in gp120 binding (EC50 variant/EC50 WT) came to 0.8 fold in [1] and 0.4 fold in experiment [2]. The results for the Fold change in neutralization (IC50 variant/IC50 WT antibody) in experiment [3] and in experiment [4] were 1.2 fold and 1.3 fold, respectively.
With PGT 128 IgG variant HC C52bA (antibody), the Fold change in neutralization (IC50 variant/IC50 WT antibody) was above 4000 fold in experiment [9], above 2000 fold in [3] and above 3000 fold in experiment [4].
Regarding PGT 128 IgG variant LC W95A (antibody), the results for the Fold change in neutralization (IC50 variant/IC50 WT antibody) in experiment [9], in experiment [3] and in experiment [4] were above 4000 fold, above 2000 fold and above 3000 fold, respectively.
As to “PGT 128 IgG variant HC D100dA (antibody)”, the fold change in gp120 binding (EC50 variant/EC50 WT) in [1] and in experiment [2] was 0.1 fold in each case. Further, the Fold change in neutralization (IC50 variant/IC50 WT antibody) stood at 0.5 fold in [3] and 0.3 fold in experiment [4].
Regarding PGT 128 IgG variant LC N94A (antibody), the results for the fold change in gp120 binding (EC50 variant/EC50 WT) in experiment [1] and in experiment [2] were 0.7 fold and 1.1 fold, respectively. For the same compound, the Fold change in neutralization (IC50 variant/IC50 WT antibody) in [3] is 3.5 fold; in [4], 1.3 fold.
